{"source": "paper PMC5814352", "about": "(Nature, 2018)", "proteins": {"B1": {"name": "human DNMT3A (R836A) C-terminal domain (residues 628-912) (domain or fragment, UniProt Q9Y6K1-1 628-912, looked up)", "chain": "AEKRKPIRVLSLFDGIATGLLVLKDLGIQVDRYIASEVCEDSITVGMVRHQGKIMYVGDVRSVTQKHIQEWGPFDLVIGGSPCNDLSIVNPARKGLYEGTGRLFFEFYRLLHDARPKEGDDRPFFWLFENVVAMGVSDKRDISRFLESNPVMIDAKEVSAAHRARYFWGNLPGMNRPLASTVNDKLELQECLEHGRIAKFSKVRTITTASNSIKQGKDQHFPVFMNEKEDILWCTEMERVFGFPVHYTDVSNMSRLARQRLLGRSWSVPVIRHLFAPLKEYFACV", "modifications": "covalently bound to Zebularine of the 25-mer DNA"}}, "target": "the molecule itself", "experiment": "crystal structure", "data": [{"protein": "B1", "values": [{"measurement": "binding result", "result": "binds"}]}]}
